Data as given in patent US20140370516, “DIAGNOSIS OF TUBERCULOSIS” (CSIR, published 2014).

Experiments:
[1] = target: T1, EsxGH heterodimer (ESX-3 secretion system) (UniProt O53692;P9WNK3 O53692:2-97,P9WNK3:1-96); experiment: ELONA; conditions: label: biotin
T1 sequence 1: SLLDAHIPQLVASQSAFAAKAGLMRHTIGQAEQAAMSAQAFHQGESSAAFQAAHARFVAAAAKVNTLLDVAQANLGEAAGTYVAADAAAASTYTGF
T1 sequence 2: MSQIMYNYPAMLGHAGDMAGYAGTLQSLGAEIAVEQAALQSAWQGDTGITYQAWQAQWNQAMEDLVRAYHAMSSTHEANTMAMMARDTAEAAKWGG
Procedure: (§1) For each binding assay, 96 well micro-titre plates (Corning, Adcock Ingram) were coated with the CFP-10.ESAT-6 heterodimer in a 10 mM NaHCO₃ buffer pH 8.5 (Sigma) and left overnight at 4° C. The plates were then washed with 1× phosphate buffered saline containing 0.005% Tween 20 (PBS-T) pH7 (Sigma) and blocked with a 5% fat free milk solution for 1 hour at 4° C. The plates were then washed 3 times with a 1×PBS after which 150 nM biotinylated aptamer was added and incubated for 2 hours at room temperature. This was followed by three wash steps with 1×PBS-T and the addition to HRP-conjugated streptavidin (diluted 1:10000 in 1×PBS-T) and incubated for two hours at 37° C. The plates were then washed four more times with 1×PBS-T, after which a final 3,3′,5,5′-tetramethylbenzidine (TMB) detection substrate (Separations) was added. […] The reaction was stopped with a 2 M sulphuric acid solution (Merck), resulting in a colour change from blue to yellow. The plates were read on the MultiSkan Go plate reader (ThermoScientific, AEC-Amersham) at a wavelength of 450 nm. […] Each aptamer was done in triplicate and the repeats were averaged and the standard deviation calculated. Each aptamer was tested twice in triplicate to ensure accuracy. The aptamers were then compared to the aptamer alone control using a Student t-test statistical analysis to obtain the p value for significance.
(§2) Selected ssDNA aptamers were tested for binding specificity to the ESAT-6 and CFP-10 monomers. The aptamers were tested for binding using ELONA to CFP-10, ESAT-6, CFP-10.ESAT-6 heterodimer, a CFP-10.ESAT-6 related protein in the ESX3 secretion system (EsxGH complex) and a HIV surface glycoprotein (gp120). EsxGH is an ESAT-6 family related protein that is encoded and secreted by the ESX-3 secretion system and gp120 is a HIV glycoprotein which is unrelated to the Mtb antigens.

ESAT-6 (monomer) = ESAT-6 (monomer) (Mycobacterium tuberculosis, UniProt P9WNK7 P9WNK7:2-95); experiment: ELONA; conditions: label: biotin
Procedure: as §1, §2

CFP-10 (monomer) [2] = target: T2, CFP-10 (monomer) (Mycobacterium tuberculosis, UniProt P9WNK5 P9WNK5:2-100); experiment: SPR; CFP-10 immobilised on CM5 chip, BIAcore 3000; conditions: label: biotin; two predicted stem-loops
Procedure: (§3) FIG. 7 illustrates kinetic studies of 5 of the best aptamers. CFP-10 attached to a CM5 chip was used to capture the respective anti-CFP-10.ESAT-6 aptamers. The respective aptamers were injected at different concentrations at a flow rate of 10 μl/min for 5 minutes and allowed to dissociate for 10 minutes;
(§4) To determine the binding affinity of aptamers to the M.tb antigens, all four flow cells on a CM5 chip (BIAcore, Separations Scientific) were activated with EDC:NHS (BIAcore, Separations Scientific). CFP-10 was bound to three of the four flow cells by injecting 50 μl of 50 μg/ml CFP-10 over them. Ethanolamine (BIAcore, Separations Scientific) was then injected over all four flow cells to quench any remaining active sites. Partially bound or unbound protein was removed by a wash with 10 μl of a 10 mM NaOH solution. Different concentrations of the respective aptamers (0 nM, 31 nM, 62 nM, 125 nM, 250 nM, and 500 nM) were randomly injected over all four flow cells at a flow rate of 10 μl/min for 5 minutes. The respective aptamers, were then allowed to dissociate for 10 minutes. […] The evaluation was done using BiaEvaluation Software (BIAcore) to determine the KD values for each flow cell. The average dissociation constant was then determined.

CFP-10 (monomer) [3] = target: T2, CFP-10 (monomer); experiment: SPR; CFP-10 immobilised on CM5 chip; also bound in ELONA; conditions: label: biotin; three predicted stem-loops
Procedure: as §3, §4

[4] = target: T3, CFP-10.ESAT-6 heterodimer (Mycobacterium tuberculosis, UniProt P9WNK5;P9WNK7 P9WNK5:2-100,P9WNK7:2-95); experiment: ELONA; slightly higher affinity than 90-mer (P<0.05); conditions: two predicted stem-loops
CFP-10 (monomer) [5] = target: T2, CFP-10 (monomer); experiment: ELONA; affinity comparable to 90-mer; conditions: two predicted stem-loops
CFP-10 (monomer) [6] = target: T2, CFP-10 (monomer); experiment: ELONA, 150 nM aptamer; conditions: label: biotin
[7] = target: T3, CFP-10.ESAT-6 heterodimer; experiment: ELONA, 150 nM aptamer; binding abrogated by anti-ESAT-6 mAb; conditions: label: biotin
Procedure: as §1, with “The assay was modified from an ELISA protocols for determination of aptamer-protein interactions and has been termed an ELONA. Unique aptamer clones identified by sequencing were tested for their individual binding characteristic to the CFP-10.ESAT-6 heterodimer using an ELONA. Each ssDNA aptamer was prepared using the exonuclease method as described above with minor modifications, in that all aptamers were prepared with the biotinylated forward primer. For” for “For”
The antibody competition binding was done using the ELONA method described above with minor modifications.

CFP-10 (monomer) [8] = target: T2, CFP-10 (monomer); experiment: ELONA, 150 nM aptamer; SPR also run, Kd not given; conditions: label: biotin
CFP-10 (monomer) [9] = target: T2, CFP-10 (monomer); experiment: SPR; CFP-10 immobilised on CM5 chip; conditions: label: biotin
Procedure: as §3, §4

B1: CSIR 2.19 (ssDNA)
DNA: GCCTGTTGTGAGCCTCCTAACTTCCAATAACGATACTTAAACCTGGTCTTTGCCAGTCAATGATAGCATCATGCTTATTCTTGTCTCCC
binding result ([1]; two predicted stem-loops): no binding
binding result (ESAT-6 (monomer); two predicted stem-loops): no binding
Kd (CFP-10 (monomer) [2]): 1.6 nM

B2: CSIR 2.11 (ssDNA)
DNA: GCCTGTTGTGAGCCTCCTAACCCCATCTTATACGTATATGGACTCATCTCGACCCCCGATAGGCTTGGTACATGCTTATTCTTGTCTCCC
binding result ([1]; three predicted stem-loops): no binding
binding result (ESAT-6 (monomer); three predicted stem-loops): no binding
Kd (CFP-10 (monomer) [3]): 8 nM

B3: CSIR 2.19 truncated (77-mer) (ssDNA)
DNA: GCCTGTTGTGAGCCTCCTAACTTCCAATAACGATACTTAAACCTGGTCTTTGCCAGTCAATGATAGCATCATGCTTA
modifications: [none (12 nt removed from the 3' end, parent positions 1-77)]
binding result [4]: binds
binding result (CFP-10 (monomer) [5]): binds

B4: CSIR 2.9 (ssDNA)
DNA: GCCTGTTGTGAGCCTCCTAACTCCGGTCTTCAACATGTCCAATCGAACTTCGGCGGAAATCCTTTACCTGCATGCTTATTCTTGTCTCCC
binding result (CFP-10 (monomer) [6]): binds
binding result [7]: binds
binding result [1]: no binding
binding result (ESAT-6 (monomer)): no binding

B5: CSIR 2.15 (ssDNA)
DNA: GCCTGTTGTGAGCCTCCTAACTAATGTGGATGCTGCATCGTTAGTATTTCTAGCATGCAATATAGGCATGCATGCTTATTCTTGTCTCCC
binding result [7]: binds
binding result [1]: no binding
binding result (ESAT-6 (monomer)): no binding
binding result (CFP-10 (monomer) [8]): binds

B6: CSIR 2.21 (ssDNA)
DNA: GCCTGTTGTGAGCCTCCTAACACACACGTAGCGCCTTGTTGAAGTATACTCAAAGCATTCTCCACGCGGGCATGCTTATTCTTGTCTCCC
binding result (CFP-10 (monomer) [6]): binds
binding result [7]: binds
binding result [1]: no binding
binding result (ESAT-6 (monomer)): no binding

B7: CSIR 2.2 (ssDNA)
DNA: GCCTGTTGTGAGCCTCCTAACCCGTCTAACGAGATTGGGTCTTCATATGGCTCGAAGCGCGCGGTCAGTTCATGCTTATTCTTGTCTCCC
Kd (CFP-10 (monomer) [9]): 21.5 nM
binding result [1]: no binding
binding result (ESAT-6 (monomer)): no binding
